Positions count from the first letter of the chain named.
Tests used:
AR [1] = assay: Mammalian two-hybrid assay hRad9 / AR in PC-3 cells; assay type: cell-based, human; conditions: 10 nM DHT; for interaction between AR and full-length hRad9 / interaction between AR and the fragment of hRad9 (aa 327-391): FXXLF motif mutants
Method: (§1) PC-3, CWR22R, and LNCaP cell lines were maintained in […] supplemented with 10% fetal calf serum (FCS). Transient transfection for luciferase assays was carried out in 24-well plates (5×10^4 cells per well) using SuperFect as described previously (Lin, H. K., et al., Embo J 21:4037-48 (2002)). DNA mixtures in transfection assay were indicated in each figure. The total amount of transfected DNA was kept constant (1 μg) by adding the corresponding amounts of empty expression plasmids. After transfection, cells were cultured in […] supplemented with 5% charcoal-stripped FCS in the presence or absence of 10 nM dihydrotestosterone (DHT) for 18 h. Luciferase assays were performed as previously described (Yang, L., et al., J Biol Chem 278:16820-7 (2003)). In Western blotting assays, CWR22R or LNCaP cells were transfected by electroporation using 5×10^6 cells/0.4 ml of RPMI medium containing 2% FCS plus 9 μg of the indicated plasmids. 1 μg of EGFP expression vector was used for transfection efficiency. Electroporation was performed at 250 V and 950 μF using Gene Pulser II (Bio-Rad)
Target sequence in this assay (P10275 with tags, fused parts or gaps DEL79-80/DUP473-473): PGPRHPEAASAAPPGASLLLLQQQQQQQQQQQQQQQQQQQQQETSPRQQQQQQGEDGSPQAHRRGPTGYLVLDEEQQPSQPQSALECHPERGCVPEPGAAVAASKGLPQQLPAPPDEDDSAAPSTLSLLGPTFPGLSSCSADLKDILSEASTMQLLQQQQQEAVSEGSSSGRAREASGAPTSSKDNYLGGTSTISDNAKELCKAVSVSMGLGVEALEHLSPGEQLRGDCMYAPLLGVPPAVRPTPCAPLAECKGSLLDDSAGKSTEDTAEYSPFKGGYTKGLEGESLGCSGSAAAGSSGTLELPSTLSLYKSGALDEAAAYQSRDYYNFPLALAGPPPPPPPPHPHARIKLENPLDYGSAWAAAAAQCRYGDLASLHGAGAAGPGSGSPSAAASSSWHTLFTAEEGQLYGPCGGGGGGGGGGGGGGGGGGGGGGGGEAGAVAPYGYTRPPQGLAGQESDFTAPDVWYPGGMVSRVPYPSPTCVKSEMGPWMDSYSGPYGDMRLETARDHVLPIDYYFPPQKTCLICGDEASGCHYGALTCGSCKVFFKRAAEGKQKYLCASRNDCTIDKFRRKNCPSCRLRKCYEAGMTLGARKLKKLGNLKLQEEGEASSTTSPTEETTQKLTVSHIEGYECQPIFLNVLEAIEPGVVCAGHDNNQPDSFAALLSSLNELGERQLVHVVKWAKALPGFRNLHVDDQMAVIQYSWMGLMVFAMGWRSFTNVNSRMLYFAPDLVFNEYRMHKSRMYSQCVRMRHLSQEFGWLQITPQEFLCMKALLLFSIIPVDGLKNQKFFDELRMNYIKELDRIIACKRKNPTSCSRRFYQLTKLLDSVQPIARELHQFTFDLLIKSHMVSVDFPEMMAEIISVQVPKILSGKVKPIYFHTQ

AR (DBD-LBD, LBD, DBD) = assay: Yeast two-hybrid / liquid β-gal assay hRad9 fragment / AR domains; assay type: cell-based, human
Description: The DBD and LBD of AR cDNA was amplified and was cloned into the NdeI and BamHI site of pGBKT7 (Clontech). Yeast strain AH109 was transformed with the vector encoding GAL4 DBD-AR-DBD-LBD fusion and was mated with yeast strain Y187 pretransformed with the human ovary […] cDNA library (Clontech). The yeast clones were selected following the manufacturer's instruction. The positive clones were confirmed by clone lift assay and purified plasmids were retransformed into yeast strain AH109 with bait plasmids. The interaction specificity was further confirmed by liquid […] assay.

[2] = system: MAPK (GAL4-Elk1 transactivation); assay: GAL4-Elk1 reporter gene assay (MAPK activation) in MCF7 cells; assay type: cell-based, human; conditions: AR-FL-activated, pG5-luc reporter
Method: Cells were plated in 96-well plates and plasmids at 0.5 μg per well were transfected into cells using SuperFect (Qiagen). The medium was changed 2 h after transfection and cells were cultured in the medium containing 10% CDS-FBS or 0.2% HI-FBS for 16 h, followed by treatment with 50 ng/ml EGF, 100 ng/ml IGF-1,100 ng/ml HRG-α 0.1 nM E2, or 1 nM DHT for another 16 h. Cells were then harvested and the luciferase activity was analyzed using Dual-Luciferase Reporter Assay System (Promega). 5 ng pRL-TK per well was used as internal control.

AR [3] = assay: AR transactivation reporter gene assay in H1299 cells with ARA67; assay type: cell-based, human; conditions: H1299 cells, 600 ng construct, MMTV-luc
Method: H1299 and COS-1 cells were maintained in Dulbecco's modified Eagle's medium (DMEM) (Life Technologies, Inc.) supplemented with 10% heat inactivated fetal bovine serum (FBS). LNCap cells were maintained in RPMI 1640 supplemented with […]. All media contain 100 units penicillin, 100 μg/ml streptomycin and 2 mM L-glutamine. Cells were seeded to a density of 50-60% confluency for transfection. In transfections where H1299 and COS-1 cells were used, the calcium phosphate precipitation method was used as described (Pan H J, et al. 1999. Endocrine 11:321-327) unless otherwise noted. […] In other reporter gene assays, where ligand treatment was required, cell culture media were changed to DMEM containing 10% charcoal-dextran-stripped FBS (CD-FBS) 2 h before transfection. After 16-18 h transfection, cells were treated with medium containing either vehicle or ligands for another 20-24 h and then cells were harvested. With LNCap cells transfection, the cells were treated with fresh RPMI 1640 containing 10% CD-FBS before transfection with SuperFect performed according to the manufacturer's protocol (Qiagen). After transfection, cells were allowed to recover in fresh RPMI 1640 containing 10% CD-FBS for 8-12 h, and then treated with either vehicle or ligands for another 20-24 h before harvesting. Each experiment was repeated at least three times.
Target sequence in this assay (P10275 with tags, fused parts or gaps DEL79-80/DUP473-473): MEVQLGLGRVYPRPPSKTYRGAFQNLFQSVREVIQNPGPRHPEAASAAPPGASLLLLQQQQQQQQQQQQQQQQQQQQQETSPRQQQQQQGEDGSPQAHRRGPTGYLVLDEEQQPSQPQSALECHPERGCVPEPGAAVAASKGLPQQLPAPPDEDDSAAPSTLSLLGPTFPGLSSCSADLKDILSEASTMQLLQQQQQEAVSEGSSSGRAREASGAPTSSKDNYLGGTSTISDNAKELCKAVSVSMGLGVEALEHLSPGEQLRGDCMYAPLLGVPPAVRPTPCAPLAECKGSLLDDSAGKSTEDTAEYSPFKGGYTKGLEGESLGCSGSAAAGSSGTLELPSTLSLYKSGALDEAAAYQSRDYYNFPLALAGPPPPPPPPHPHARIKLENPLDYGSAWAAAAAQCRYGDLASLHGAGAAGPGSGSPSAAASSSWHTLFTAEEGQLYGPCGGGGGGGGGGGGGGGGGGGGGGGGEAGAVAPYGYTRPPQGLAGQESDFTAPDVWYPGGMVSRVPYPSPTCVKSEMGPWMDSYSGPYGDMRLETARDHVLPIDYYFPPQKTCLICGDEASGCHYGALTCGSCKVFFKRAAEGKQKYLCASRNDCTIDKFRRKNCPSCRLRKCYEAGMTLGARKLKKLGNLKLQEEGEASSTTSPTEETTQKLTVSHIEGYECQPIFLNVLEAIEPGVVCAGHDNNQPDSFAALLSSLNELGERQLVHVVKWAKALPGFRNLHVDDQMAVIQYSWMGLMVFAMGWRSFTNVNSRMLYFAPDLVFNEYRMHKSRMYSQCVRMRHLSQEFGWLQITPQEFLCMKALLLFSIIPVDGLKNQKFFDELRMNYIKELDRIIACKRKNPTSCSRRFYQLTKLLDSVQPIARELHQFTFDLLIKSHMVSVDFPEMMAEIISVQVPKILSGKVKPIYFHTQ

AR (ARN, ARDBD, ARLBD) = assay: GST pull-down assay ARA67 / AR; assay type: binding, human
Method: GST-ARN, GST-ARA67 fusion proteins, and GST control protein were expressed in BL21 (DE3)pLysS bacteria strain (Stratagene) and purified with glutathione-Sepharose beads as instructed by the manufacturer (Amersham Pharmacia). In vitro [^35S]methionine-labeled AR, ARN, AR DBD, AR LBD and ARA67 proteins were generated using TNT-coupled Reticulocyte Lysate Systems (Promega). For in vitro interaction, mixtures of glutathione beads bound GST fusion proteins and 5 μl [^35S]methionine-labeled input proteins in 100 μl interaction buffer (20 mM Tris/pH8.0, 60 mM NaCl, 6 mM MgCl2, 1 mM EDTA, 0.05% Nonidet P-40, 1 mM DTT, 8% glycerol, 1 mM PMSF) were incubated in the presence or absence of 10 μM dihydrotestosterone (DHT) on a rotating disk at 4° C. for 2 h. After washing with NETN buffer (20 mM Tris/pH8.0, 100 mM NaCl, 6 mM MgCl2, 1 mM EDTA, 0.5% Nonidet P-40, 1 mM DTT, 8% glycerol, 1 mM PMSF) four times, the bound proteins were separated on 8-13% SDS-PAGE and visualized by autoradiography.

AR [4] = assay: AR transactivation MMTV-LUC assay in PC-3 cells with hRad9; assay type: cell-based, human
Method: as §1

AR N/C interaction = assay: Reconstituted AR transcription assay (AR N/C interaction) in PC-3 cells; assay type: cell-based, human; conditions: 10 nM DHT, MMTV-LUC
Method: as §1

AR N/C interaction, sequence (P10275 557-920): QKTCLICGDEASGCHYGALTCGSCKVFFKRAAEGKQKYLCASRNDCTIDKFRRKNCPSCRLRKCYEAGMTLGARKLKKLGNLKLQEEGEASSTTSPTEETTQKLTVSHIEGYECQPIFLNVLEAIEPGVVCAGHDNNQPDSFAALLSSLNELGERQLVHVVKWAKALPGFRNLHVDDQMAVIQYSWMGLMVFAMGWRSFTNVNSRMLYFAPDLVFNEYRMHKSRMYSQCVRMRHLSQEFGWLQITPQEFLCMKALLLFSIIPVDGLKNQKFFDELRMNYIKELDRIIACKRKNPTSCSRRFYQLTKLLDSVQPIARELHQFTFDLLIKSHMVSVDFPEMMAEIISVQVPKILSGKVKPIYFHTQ
AR (ARN, ARDBD, ARLBD), sequence (P10275 with tags, fused parts or gaps DEL79-80/DUP473-473): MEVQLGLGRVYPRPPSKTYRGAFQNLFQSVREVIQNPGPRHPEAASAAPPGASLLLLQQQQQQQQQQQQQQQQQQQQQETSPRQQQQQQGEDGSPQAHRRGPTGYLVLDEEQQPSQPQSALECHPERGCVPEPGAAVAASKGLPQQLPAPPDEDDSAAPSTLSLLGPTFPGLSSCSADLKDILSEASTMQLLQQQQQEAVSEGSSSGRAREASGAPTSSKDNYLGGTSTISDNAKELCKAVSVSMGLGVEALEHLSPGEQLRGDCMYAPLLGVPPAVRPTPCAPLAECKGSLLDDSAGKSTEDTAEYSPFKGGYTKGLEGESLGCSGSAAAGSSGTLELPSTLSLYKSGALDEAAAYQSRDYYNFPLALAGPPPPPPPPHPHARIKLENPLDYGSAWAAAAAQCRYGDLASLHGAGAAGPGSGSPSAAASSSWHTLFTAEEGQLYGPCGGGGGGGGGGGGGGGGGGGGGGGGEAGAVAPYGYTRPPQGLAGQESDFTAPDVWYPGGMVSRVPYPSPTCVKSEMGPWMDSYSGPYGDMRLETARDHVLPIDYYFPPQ

B1: f-hRad9: fragment aa 327-391 of hRad9 containing the FXXLF motif (protein, UniProt Q99638 327-391, looked up, fragment)
chain: LSPGPQPPKSPGPHSEEEDEAEPSTVPGTPPPKKFRSLFFGSILAPVRSPQGPSPVLAEDSEGEG
For B1, the “interaction with AR” value (AR [1]) was “androgen-dependent interactions were detected”, the “interaction with AR LBD” value (AR (DBD-LBD, LBD, DBD); AH109 yeast cells, presence of androgen) was “interacted” and the “liquid β-gal assay induction with the AR-DBD-LBD” value (AR (DBD-LBD, LBD, DBD); yeast, presence of DHT) was “strong induction”.

B2: CL-100: MAPK phosphatase-1 (protein, UniProt P28562 1-367, looked up)
Dual specificity protein …: MVMEVGTLDAGGLRALLGERAAQCLLLDCRSFFAFNAGHIAGSVNVRFSTIVRRRAKGAMGLEHIVPNAELRGRLLAGAYHAVVLLDERSAALDGAKRDGTLALAAGALCREARAAQVFFLKGGYEAFSASCPELCSKQSTPMGLSLPLSTSVPDSAESGCSSCSTPLYDQGGPVEILPFLYLGSAYHASRKDMLDALGITALINVSANCPNHFEGHYQYKSIPVEDNHKADISSWFNEAIDFIDSIKNAGGRVFVHCQAGISRSATICLAYLMRTNRVKLDEAFEFVKQRRSIISPNFSFMGQLLQFESQVLAPHCSAEAGSPAMAVLDRGTSTTTVFNFPVSIPVHSTNSALSYLQSPITTSPSC
B2 was tested, and the “AR-activated GAL4-Elk1 activity” value [2] was “diminished”.

B3: ARA67281-550: truncated ARA67 fragment, residues 281-550 (protein)
chain: GSKHPKYSDTLLDYGFYLLNVDNICQSVAIYQAALDIRQSVFGGKNIHVATAHEDLAYSSYVHQYSSGKFDNALFHAERAIGIITHILPEDHLLLASSKRVKALILEEIAIDCHNKETEQRLLQEAHDLHLSSLQLAKKAFGEFNVQTAKHYGNLGRLYQSMRKFKEAEEMHIKAIQIKEQLLGQEDYEVALSVGHLASLYNYDMNQYENAEKLYLRSIAIGKKLFGEGYSGLEYDYRGLIKLYNSIGNYEKVFEYHNVLSNWNRLRDRQ
With B3 the “suppression of AR transactivation by ARA67 fragments” value (AR [3]) was “could also suppress AR transactivation” and the “interaction with ARN” value (AR (ARN, ARDBD, ARLBD)) was “slightly stronger interaction”.

B4: AXXLF: hRad9 mutant, F361 converted to Ala (protein, UniProt Q99638 1-391, looked up, variant F361A)
Cell cycle checkpoint control …: MKCLVTGGNVKVLGKAVHSLSRIGDELYLEPLEDGLSLRTVNSSRSAYACFLFAPLFFQQYQAATPGQDLLRCKILMKSFLSVFRSLAMLEKTVEKCCISLNGRSSRLVVQLHCKFGVRKTHNLSFQDCESLQAVFDPASCPHMLRAPARVLGEAVLPFSPALAEVTLGIGRGRRVILRSYHEEEADSTAKAMVTEMCLGEEDFQQLQAQEGVAITFCLKEFRGLLSFAESANLNLSIHFDAPGRPAIFTIKDSLLDGHFVLATLSDTDSHSQDLGSPERHQPVPQLQAHSTPHPDDFANDDIDSYMIAMETTIGNEGSRVLPSISLSPGPQPPKSPGPHSEEEDEAEPSTVPGTPPPKKARSLFFGSILAPVRSPQGPSPVLAEDSEGEG
For B4, the “interaction between AR and full-length hRad9” value (AR [1]) was “reduced” and the “interaction between AR and the fragment of hRad9 (aa 327-391)” value (AR [1]) was “decreased dramatically”.

B5: FXXAA: hRad9 mutant, L364 and F365 converted to Ala (protein, UniProt Q99638 1-391, looked up, variant L364A F365A)
Cell cycle checkpoint control …: B4 Cell cycle checkpoint control … with A361F, L364A, F365A
With B5 the “interaction between AR and full-length hRad9” value (AR [1]) was “reduced”, the “interaction between AR and the fragment of hRad9 (aa 327-391)” value (AR [1]) was “decreased dramatically” and the “transcriptional activity of AR” value (AR [4]; MMTV-LUC, 10 nM DHT) was “only marginal effect”.

B6: N-hRad9: PCNA-like domain of hRad9, aa 1-270 (protein)
chain: MKCLVTGGNVKVLGKAVHSLSRIGDELYLEPLEDGLSLRTVNSSRSAYACFLFAPLFFQQYQAATPGQDLLRCKILMKSFLSVFRSLAMLEKTVEKCCISLNGRSSRLVVQLHCKFGVRKTHNLSFQDCESLQAVFDPASCPHMLRAPARVLGEAVLPFSPALAEVTLGIGRGRRVILRSYHEEEADSTAKAMVTEMCLGEEDFQQLQAQEGVAITFCLKEFRGLLSFAESANLNLSIHFDAPGRPAIFTIKDSLLDGHFVLATLSDTDS
B6 was tested, and the “interaction with AR” value (AR [1]) was “did not” and the “interaction between AR N- and C-terminus” value (AR N/C interaction) was “no effect”.

B7: C-terminus of hRad9: hRad9 aa 269-391 (protein, UniProt Q99638 269-391, looked up, fragment)
chain: DSHSQDLGSPERHQPVPQLQAHSTPHPDDFANDDIDSYMIAMETTIGNEGSRVLPSISLSPGPQPPKSPGPHSEEEDEAEPSTVPGTPPPKKFRSLFFGSILAPVRSPQGPSPVLAEDSEGEG
For B7, the “interaction with AR” value (AR [1]) was “strong interaction”, the “AR-mediated transactivation (full length AR)” value (AR [4]; pCMV-AR, hRad9 termini) was “suppressed” and the “interaction between AR N- and C-terminus” value (AR N/C interaction) was “potently inhibit”.
